We go through 16 sequences from a protein production outcome set (Wang et al. 2014).

The data set in a line: label from the status in PepcDB records.
Take “MELQHGQQRHIFEIRLFPEFDKAGMLKSILSVDRDVTATRQGERLLAEENEVLEMIAGNHPLPQTLEQICQMMESQQPGSMCSVLLLEEDGQSLRFAAGLSLPPAYRKLSERVAVGPSVGSCGTAAHWKRTIVVDDIQTSPLWAHALHKVQPFGLRACWSMPIFSSDRQLLGTLATYYREPRSPSQEELALAQRITRIIAIALQRDGHEKQLYRLATQDGLTELNNRRQFIELADREIERSRRHGSRMSVLMMDLDHFKDINDHYGHAVGDEVIRHFSQVCREVLRASDLCGRLGGEEFAAVLPDTGLDDARQVAERLRSLASSARLSAVSGSLGYTVSIGVAERHADETDIDEVLGRADKQLYQAKRDGRNRVSGAAPAHCG”: the protein production entry is “failed”.
On to “MRKVQVLVQTRDGKKTVYEVDRLGTVASLKARIGQVMSVPMGFSRLSYKGRVLSNQSVLEDLGPNKSTLDLTWKPVVLTANQSSKLSKFGYGRIDDSEVMFTLIGGYQQREEYPGGLVNPPDDESQLNFNAGDDDDALEAQDMTGHDLSSIQTDDLSLKGQTEPELDCSIGSHGFSGSQEEGHE”, for which the protein production result is recorded as “failed”.
For “MRKSFNLIWMVFGFLLLIVGCNEDKKSTAFDPNQPVKFTEFMPDSGGIRTKFIVKGSNFGEDKSQVKVYFKDEVGNEREALVLGVKPDVIYAQVPKQAGGESHVRVEIAGKEAELSNAEKTFKYIVTSSVSTVVGKAKEGGNKDGTLGETTFNTPRYVAVDNDDNVFIFDSDGRTRLSSIEQNKTITLLDGMVIDQPLFIDKEKKQLFGPCDNANFGCFLFDANVSWVADKMGQLLANGGWMHSVVLDPVDSTFVIYRQNTGQLWTQPFDKNRRTLNPNKAKRIGTLYNTGSNGLCAYNPVDKYVYCVLHSKSAVYRFKLTRDADGWPALDGDIDEYIPGAGAGFRDGDVQEAQFKEPRGIAIDKEGNLYIADVGNNRIRKVDTKLNVVTTIAGSGAAGYKDGDPLEAQFNQPWGVYLDKNEFLYIADQNNHCIRKLAIE” the value was “failed”.
For “MEFLSLVIVVVAAFMTPIIVHRFNINFLPVVVAEILMGIVIGHSFLNLVERDAFLNILSTLGFIFLMFLSGLEIDFNAFKKDSRPRQGEDKHEKDVPGHLKLALTVFAFIMMISVVLAFAFKWLGLVNDVLLMVIIISTISLGVVVPTLKEMNIMRTTIGQFILLVAVLADLFTMILLTVYGAIYGEGGSTIWLTGILVVFTVVFYVIGVLFKRMSFLQKLMDGTTQIGIRAVFALIILLVALAEGVGAEYILGAFLAGVVVSLLKPNEEMVEKLDSFGYGFFIPIFFIMVGVDLDIPSLIKEPSLLLIIPVLIFSFIISKLIPVFYIRRWFDTKTTIASAFLLTSTLSLVIAAAKIAEKLKAISPETSGILILSAVITCVFVPVIFKKMFPIPNEVGRRIEVSMIGKNQLTIPIAQNLTSQLYDISLYYRKDLSDSRKLSDDITMIEIADYEEDLLERLGLFERDIVVCSTNDDHINKSVALMAKKHGVKRVICRLESTNEDPTLKHQGIEVFSNYLSNKILLKSLIETPNMLNLLSNVETSLYEIQMLNYQYENIQLRNFPFGGDIIFVRIIRDNDSIVPHGDTQLRYKDRLIVTGTKEYVDELKQELEFYY” the value was “failed”.
For “MDRDSSMQAKNLDAQCNPDLKMASANSETLASATHELKIMDVEGGALVDPDHIEEVETSMVIVVDDDDGDVAMVVEEDKHPMRDDPCIEDIMDDEHAPLVAELQSALNNPDDKQASEDPLLEDQEREPDAMSTKTEPSSDAESSHSYHDPMGLLERIEIHDPGDSQDDDDEDDESSNGGGVDGGMRRKMPRAQRWLLWMKRWPWILHEDSDGTLAFCLYCNISINVNNRSRHIQQHNVSLSHQERECNYLAFKKSEEETRGAISDNEIKHEFGTKSYVAAMKQKRISETEAFNNFNWLRWLRWHPWLERSMPTGTIGTCRICSVRMNVEFVYLRKRHETTKGHMEALRNLDSDKRSRKRKRSKSNSVTNSGGDEAEREKESEPEVGPEDAQDTPVVMMNGDVDSGDDPGKWCALIPDTNPQQCRCTLCNCTMAITSFLRHCKTRAHCHMLSTPAEKGSSDIRGIWAVFADMHPWLIADPEDPSIGYCSVCRKRFMYGNSEIKRKNHEKSEKHTLALASAKAGIEVGSADGRGGDNMDEEEAAASDQAQSSQTDDSEDNDDDNWSEIQKLGKGFAHKSSSEPRKATVRAGVRFYPWLCYSKDRKTQICKFCRVRFHNEAAKARHELSARHVKLVKQFKMRQAKLHQGTNTQTKHNAQDDEESQEQDEEYGEEEEDAEEDSQSNFDLGTVQARKTARADNKLFVKPIPATMKGKVMVWKGRFPWLSYKKNEQRGNYAWCKLCEVSLYLPSSKWASKHQRTSRHIRLRIDRKRNGGNPLKTSNKNSGEISTVVATASALASAEARQKAAMAELQAKYDWLDPDANDENHCHCRVCDSRLPIKVFYLRQHDASRKHVENKERQRANAAAAANAPSVSPTSTVDAERQESGMDKESENDMSVRSDGSTAEPLAKRSRRSMEVRRIIRALRDSMGKRQEERSQMDMARDMICSSFDIVTRLRTLERESVAHNESMAQAPPSVTVSPIKPPEPRHVMDLFFDSISPTMKSLPPDLAAEGKSKIMQLVCSLELRAMQRNATTPTPATVSASSKWPSSTTVTPVKTPPAPISAPLASVDADLHSSVVTTPHEYNNGQNNNNDKETVPKEPVTGASSAQVTINGSAKDLPENIRRILTSNQTQVTNRLETDSVRCVPLDKLTTQSRTNVNGRLSQGGTSEAPSTPQADLSNGNTLAMIRQIRVNNNNSSKITVTNTPQMQQPQQAQASITSSTPIMRGGPSSNGCQITTFRTMVNHNRRP” the value was “failed”; for “MKKLTSLFPLLFLIPLLASCAEEKQVYIVYFGEHKGDKAFHEIEEHHHSYLQSVKESEEDARASLLYSYKHSINGFAAELTPDQASKLEKLAEVVSVFKSHPRKYEAHTTRSWEFVGLEEEETDSDVPRRKNDADDRFRVGRNFLKKAKHGDGIIVGVLDSGVWPESKSFNDKGMGPVPKSWKGICQTGVAFNSSHCNRKIIGARYYVKGYERYYGAFNATANKDFLSPRDPDGHGSHTASTAVGRRVLGASALGGFAKGSASGGAPLARLAIYKACWAKPNAEKVEGNICLEEDMLAAIDDAIADGVHVISISIGTTEPFPFTQDGIAMGALHAVKRNIVVAASAGNSGPKPGTLSNLAPWIITVGASTLDRAFVGGLVLGNGYTIKTDSITAFKMDKFAPLVYASNVVVPGIALNETSQCLPNSLKPELVSGKVVLCLRGAGSRIGKGMEVKRAGGAGMILGNIAANGNEVPSDSHFVPTAGVTPTVVDKILEYIKTDKNPKAFIKPGKTVYKYQAAPSMTGFSSRGPNVVDPNILKPDITAPGLYILAAWSGADSPSKMSVDQRVAGYNIYSGTSMSCPHVAGAIALLKAIHPKWSSAAIRSALMTTAWMTNDKKKPIQDTTGLPANPFALGSGHFRPTKAADPGLVYDASYRAYLLYGCSVNITNIDPTFKCPSKIPPGYNHNYPSIAVPNLKKTVTVKRTVTNVGTGNSTSTYLFSVKPPSGISVKAIPNILSFNRIGQKQRFKIVIKPLKNQVMNATEKGQYQFGWFSWTDKVHVVRSPIAVSLA”, “failed”; for “MTRTVTGDTVQTRWGPVQVRVTVRNGVITEVTAVACPQENPKDREINSYAIPQLRREALAAQSAQIDSVSGATYTSDGYRQSLQSALDSAGLLEHHHHHH”, “not failed”.
For “MPKASDIKKGSAIEHNGKVFFVKEISKLTPSGRAGATLFRMRMYDVATGAKSDESFKADDMINLADFSRRSATFSYVDGNEYVFMDSEDYTPYNFNKEAIEEELLFITEETQGLQILIVDGAPVAIELPSAVDLEIVETAPSIKGASASARTKPATMTTGLTVQVPEYIANGEKVKINTTEHKFMSRALEHHHHHH”, the protein production entry is listed as “failed”.
The value for “MSLVVCQPQINESFYQKDDMGGLSFLQSMSDITSIAQTKEDKAYVHPMEKRSVSKLNEKSLEMCTESLGTETGSESGDELSLLAFEATTTPRAPPRQLKPQEDTNLPDKTPPMSRNNSFPPPIKFVEDSKYNRMVRWLGEDGRIVVQAIRVSSPPSCFVSERGEGRLRLILTSESSLLSHNHEEEEEEETEEGIDEETSENLEGKSGNKKFSRFSRRCKENGREPKPMLTWKQQQFWVAT” was “failed”.
For “MSKIKWSNLWKGFAMGTTDLVPGVSGGTIALLLGIYDDFIRSISGLFSKRFWESLKFLLPIGIGMVVAIGLLSKLINYLLSTHTVPTMFFFVGLIGGIIPYLLKTSRFKHTFTTPHYLLLVVGIIVIVMMTVMNSGDKHAGETLSLSTGLILKYFIAGACASSAMLLPGISGSFMLLVFGVYGTIMYAISEFVSLNFAALPILITVGCGVLFGFLCSSKLIQYLLSYYTYLTYALIIGFVIGSLYAVFPGLPSTIMIWIVSIVTLLLGFVISYRLGRLTAD” the value was “failed”.
For “MLRNIIRFKGFGKGTSGGFLKPVSFRVQLTRCYRYDNGPSYRRFNNGEYSQKSSFKSILLDKSSRKYLALLFGGCSLFYYTHLDKAPVSDRSRFIWVSRPLELTIGNYTYKSIWRQTQQEILPPQHPLSIKIENIFMKIVEAAYKDPSVDNSLLDGIKWEIHVVNDPTASPNAFVLPGGKVFIFSSILPICANDDGIATVLAHEFAHQLARHTAENLSKAPIYSLLGLVLYTVTGAHAINNILLDGFLRMPASRQMETEADYIGLMIMSRACFQPQESIKVWERMANFEKQMNRGGVVNMEFLSTHPASTRRIENMSKWLPKANEIYEQSDCSSMGNYYKSFFSM” the value was “failed”; for “MTIKRIFCDMDGTLLNSEGQVSKSNATLIREAAIPVTLVSARAPMEMKDAVDALQLGGVQVAFNGGLIYRIGDNNQVLPIHTQIIKKSTVKQLLRGIRFHFPQVSLSYYDLNNWYCDKIDEGIRYEHSLTQQCPTFIHNEDQFLEGHTNTFKIMMITFDEANMLELEKYLQSLELPEITIQRSGKAYLEITHLLAKKSKGIAYILQKEQLAREETAAFGDGHNDLPMLEMVGYPIVMDNAFDDIKAIAYQLTKSNDEDGVGYGIQKFLK”, “failed”.
For “MDSIKGVFTGNKDTPLEESNLPVEAFTLLRFADELKNARRLGKFKQYIVGRSSEATFADAFEKQEAVIRYLGALDATGENLQASQKQDAAKHCKCTITDVENTLSKFTWARQAHKKMTELKEGGKPLPKNMGEVFFSLCILICFFSSISSYV”, the protein production entry is “failed”.
The value for “MNVAEEMLSGEETLAVGERFKTFLENFRTEEGKLKYVEAIRRMINYEETSLEVEFKDLYRYDPLLSEILLEKPREFLKEASEALKEIVAQESPEYAQGRVFTPRFTGLFDTERIRDIGSDHVGKLVQINGIVTRMHPRATRMVRARFRHDRCGAEFWWPANEDEVLGERIERPSICPVCGEGGGKFTLVRDKSLYIDWQKIMVQERPEDVPGGQIPRSIEVHLSRDLVEKVRPGDRVKIVGVVGLQSFSSSSTLYSLYMEANSILLEEKILEEVSITREDEEKILQLSRDPWIKEKIIASIAPTIYGHWDLKEAIALLLFGGVPKQRPDGTRTRGDIHVLFVGDPGVAKSQLLQSTAQVAPRVVYTTGKGSTAAGLTAAVLRDPRTGEYFLEAGALVLADGGIAVIDEFDKMSKEDRGVIHEAMEQQTVSIAKAGIKATLSARASLLAAGNPKFGYYDPSRSFVDNVDLPAPIISRFDLIFVVRDVIERSRDEMLASYVLETHTNVELFKPEIDPDLLRKYIAFARKHVKPRLTPQAKKLLKDFYVEMRSSALHHSSQEGAKPVPITTRQLEALIRLTEAHARMSLKQEATEEDAIAAIRIMTSVLQSIGLDLETGEIDIGIIMTGASFRSRKIMSEVLDLIKSIVEEERGGQGCVRASEIVRRLGEKNIPEEKVRDAIDKLYRQGLIIEIRTECYKAV” was “failed”; that for “MILSAEQSFTLRHPHGQAAALAFVREPAAALAGVRFLRGLDSDGEQVWGELLVTVPLLGEVDLPFRSEIVRTPQGAELRPLTLTGERAWVAVSGQATAAEGGEMAFAFQFQAHLATPEAEGWGGAAFEKMVQAAAGRTLERVAKALPEGLAAGLPPA” was “not failed”.
For “EAGEITFTEWCQGAVDMWRANDITRSDITRATRALKPKAGAVDLLAHLQQTDIRFGILSAGVANLAARFEPYEPAFVRGNWLQFEDRRVSAIDIGVGPNEKGELLRKIRSKQNPVSITYIGDSHTDTEAFIEADTAVLFDPDERVPETAIDAADTIIESADIAEVQNCIPTA” the value was “failed”.
